According to patent publication US20150203577A1 (Chugai, published 2015):
Where a chain is given by its changes, count along the chain named. Names and notes keep the numbering of the source. Where two headings read alike, the source gives them in different places. Blank lines part the entries; values can stand above or below the binder they belong to.

What was measured:
[1] = biological target: T1, mouse FcγRII (mouse, UniProt P08101 30-210); assay: SPR Biacore T200, KD ratio
T1 construct: also called mFcγRII; mFcgRII
T1 sequence: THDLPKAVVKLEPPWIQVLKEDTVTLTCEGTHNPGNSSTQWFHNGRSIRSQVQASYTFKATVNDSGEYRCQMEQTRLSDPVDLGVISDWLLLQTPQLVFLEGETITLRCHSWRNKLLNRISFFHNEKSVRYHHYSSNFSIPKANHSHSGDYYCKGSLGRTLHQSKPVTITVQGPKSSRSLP
Description: (§1) The antibody L chain commonly used was the L chain MRAL-k0 (SEQ ID NO: 2) of the anti-IL-6 receptor antibody tocilizumab. The antibody H chain constant region used was each of the aforementioned 8 Fc variants prepared by altering human IgG1 hIgG1 (SEQ ID NO: 3) as a template.
(§2) Each altered antibody was analyzed for its interaction with each Fcγ receptor prepared above using Biacore T100 (GE Healthcare Japan Corp.), Biacore T200 (GE Healthcare Japan Corp.), Biacore A100, or Biacore 4000. The running buffer used was HBS-EP+ (GE Healthcare Japan Corp.). The assay temperature was set to 25° C. The sensor chips used were chips prepared by immobilizing Protein L (ACTIGEN or BioVision) onto Series S Sensor Chip CM5 (GE Healthcare Japan Corp.) or Series S Sensor Chip CM4 (GE Healthcare Japan Corp.) by the amine coupling method.
(§3) In order to calculate the KD value of each altered antibody for FcγR, kinetic analysis was conducted according to the following method: first, the antibody of interest was captured onto any of these chips and allowed to interact with mFcγR diluted with a running buffer. For the obtained sensorgram, the assay results were globally fit into the 1:1 Langmuir binding model using Biacore Evaluation Software to calculate an association rate constant ka (L/mol/s) and a dissociation rate constant kd (1/s). From these values, the dissociation constant KD (mol/L) was calculated.

[2] = biological target: T2, mouse FcγRIII (mouse, UniProt P08508 31-215); assay: SPR Biacore T200, KD ratio
T2 construct: also called mFcγRIII; mFcgRIII
T2 chain: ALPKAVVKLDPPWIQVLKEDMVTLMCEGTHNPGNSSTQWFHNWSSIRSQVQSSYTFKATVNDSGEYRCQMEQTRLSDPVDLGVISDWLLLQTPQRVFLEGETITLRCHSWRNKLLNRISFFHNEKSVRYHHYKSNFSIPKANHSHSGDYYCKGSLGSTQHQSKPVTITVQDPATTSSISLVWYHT
Description: as §1, §2, §3

[3] = biological target: T1, mouse FcγRII; assay: SPR Biacore T200, KD ratio; remark: listed apart in the source
From the text: (§4) The antibody H chain variable region used was the variable region H237 (SEQ ID NO: 1) of the H chain VH3-IgG1 of the anti-IL-6 receptor antibody Fv4-IgG1 described in WO2009/125825. The antibody L chain commonly used was the L chain MRAL-k0 (SEQ ID NO: 2) of the anti-IL-6 receptor antibody tocilizumab. H237-MB476/MRAL-k0 and H237-MB515/MRAL-k0 were used as templates to introduce new alterations. These variants were expressed and purified by the method of Reference Example 1 and evaluated for their binding to mFcγRII and mFcγRIII by the method of Reference Example 2 using Biacore T200.
as §2, §3

[4] = biological target: T1, mouse FcγRII; assay: SPR Biacore T200, KD ratio; remark: listed apart in the source
[5] = biological target: T2, mouse FcγRIII; assay: SPR Biacore T200, KD ratio
[6] = biological target: T3, mouse FcγRIII (mouse, UniProt P08508 31-215); assay: SPR (Biacore), antibody captured on Protein L, mFcγR as analyte
T3 construct: also called mFcγRIII; mFcgRIII
T3 chain: T2 chain
Description: (§5) The antibody of interest was captured onto any of these sensor chips and allowed to interact with mFcγR diluted with a running buffer. The amount bound to the antibody was measured and compared among antibodies. Since the amount of mFcγR bound depends on the amount of the captured antibody, a correction value determined by dividing the amount of mFcγR bound by the amount of each captured antibody was used in the comparison. The antibody captured on the sensor chip was washed off through the reaction of 10 mM glycine-HCl (pH 1.5) to regenerate the sensor chip, which was repetitively used.
as §3

[7] = biological target: T4, mouse FcγRII extracellular domain, C-terminal His tag (mouse, UniProt P08101 30-210); assay: SPR (Biacore T200)
T4 construct: Whole entry named; also called mFcγRII; mFcgRII
T4 sequence: T1 sequence
From the text: as §4, with “H237-MB476/MRAL-k0 and H237-MB515/MRAL-k0 were used as templates to introduce new alterations.” left out
as §2

[8] = biological target: T5, mouse FcγRIII extracellular domain, C-terminal His tag (mouse, UniProt P08508 31-215); assay: SPR (Biacore T200)
T5 construct: Whole entry named; also called mFcγRIII; mFcgRIII
T5 chain: T2 chain
From the text: as §4, with “H237-MB476/MRAL-k0 and H237-MB515/MRAL-k0 were used as templates to introduce new alterations.” left out
as §2

[9] = biological target: T6, mouse FcγRIII extracellular domain, C-terminally His-tagged (mouse, UniProt P08508 31-215); assay: SPR Biacore T200, antibody captured on Protein L
T6 construct: the whole entry is named; also called mFcγRIII; mFcgRIII
T6 chain: T2 chain
Description: As for alterations, “X000Z” represents the substitution of amino acid X at EU numbering position 000 by amino acid Z. In this context, X and Z represent the one-letter codes of the amino acid residues.
as §2, §3

[10] = biological target: T5, mouse FcγRIII extracellular domain, …; assay: SPR (Biacore T200); KD of H237-mIgG1/MRAL-k0 / KD of variant
[11] = biological target: T4, mouse FcγRII extracellular domain, …; assay: as above
[12] = biological target: T7, mouse FcγRII (mouse, UniProt P08101 30-210); assay: SPR (Biacore), antibody captured on Protein L, mFcγR as analyte
T7 construct: also called mFcγRII; mFcgRII
T7 sequence: T1 sequence
Description: as §5, §3

[13] = biological target: T5, mouse FcγRIII extracellular domain, …; assay: SPR (Biacore T200)
[14] = biological target: T4, mouse FcγRII extracellular domain, …; assay: SPR (Biacore T200); KD of H237-mIgG1/MRAL-k0 / KD of variant; remark: listed apart in the source

- relative mFcγRII-binding activity (mIgG1 = 1) [1]: 58.2 fold
- relative mFcγRIII-binding activity (mIgG1 = 1) [2]: 20.8 fold
B1: FS134 (antibody, human IgG1, kappa)
heavy: QVQLQESGPGLVKPSETLSLTCAVSGHSISHDHAWSWVRQPPGEGLEWIGFISYSGITNYNPSLQGRVTISRDNSKNTLYLQMNSLRAEDTAVYYCARSLARTTAMDYWGEGTLVTVSSASTKGPSVFPLAPSSKSTSGGTAALGCLVKDYFPEPVTVSWNSGALTSGVHTFPAVLQSSGLYSLSSVVTVPSSSLGTQTYICNVNHKPSNTKVDKKVEPKSCDKTHTCPPCPAPELLGGPDVFLFPPKPKDTLMISRTPEVTCVVVDVSDEDPEVKFNWYVDGVEVHNAKTKPREEQYNSTYRVVSVLTVLHQDWLNGKEYKCKVSNKAYPAPIEKTISKAKGQPREPQVYTLPPSRDELTKNQVSLTCLVKGFYPSDIAVEWESNGQPENNYKTTPPVLDSDGSFFLYSKLTVDKSRWQQGNVFSCSVMHEALHNHYTQKSLSLSPGK
light: not shown
notes: human IgG1 constant region variant; copies: 2 + 2

- relative mFcγRII-binding activity (mIgG1 = 1) [1]: 96.7 fold
- relative mFcγRIII-binding activity (mIgG1 = 1) [2]: 41.8 fold
B2: FS132 (antibody, human IgG1, kappa)
heavy: B1 heavy with D270H, A329D
light: not shown
notes: as for B1

- relative mFcγRII-binding activity (mIgG1 = 1) [1]: 144 fold
- relative mFcγRIII-binding activity (mIgG1 = 1) [2]: 33.2 fold
B3: FS131 (antibody, human IgG1, kappa)
heavy: B1 heavy with L236W, D270H
light: not shown
notes: as for B1

- relative mFcγRII-binding activity (mIgG1 = 1) [1]: 162 fold
- relative mFcγRIII-binding activity (mIgG1 = 1) [2]: 86.5 fold
B4: FS133 (antibody, human IgG1, kappa)
heavy: B1 heavy with Y330W
light: not shown
notes: as for B1

- relative mFcγRII-binding activity (mIgG1 = 1) [1]: 186 fold
- relative mFcγRIII-binding activity (mIgG1 = 1) [2]: 50.1 fold
B5: F616 (antibody, human IgG1, kappa)
heavy: B1 heavy with D270H, K328D
light: not shown
notes: as for B1

- relative mFcγRII-binding activity (mIgG1 = 1) [1]: 138 fold
- relative mFcγRIII-binding activity (mIgG1 = 1) [2]: 34.4 fold
B6: FS135 (antibody, human IgG1, kappa)
heavy: B1 heavy with S269A, D270H
light: not shown
notes: as for B1

- mFcγRII-binding activity relative to H237-MB302/MRAL-k0 (before the introduction of V231D) [3]: ~0.8 fold
- Relative mFcγRII-binding activity (MB110 = 1) [4]: 3.44 fold
- relative mFcγRII-binding activity (mIgG1 = 1) [4]: 42.2 fold
- Relative mFcγRIII-binding activity (MB110 = 1) [5]: 0.64 fold
- relative mFcγRIII-binding activity (mIgG1 = 1) [5]: 2.6 fold
B7: H237-MB338/MRAL-k0 (antibody, mouse IgG1, kappa)
heavy: QVQLQESGPGLVKPSETLSLTCAVSGHSISHDHAWSWVRQPPGEGLEWIGFISYSGITNYNPSLQGRVTISRDNSKNTLYLQMNSLRAEDTAVYYCARSLARTTAMDYWGEGTLVTVSSAKTTPPSVYPLAPGSAAQTNSMVTLGCLVKGYFPEPVTVTWNSGSLSSGVHTFPAVLQSDLYTLSSSVTVPSSTWPSETVTCNVAHPASSTKVDKKIVPRDCGCKPCICEDPEVEDVFIFPPKPKDVLTITLTPKVTCVVVDISKDDPEVQFSWFVDDVEVHTAQTQPREEQFNSTFRSVSELPIMHQDWLNGKEFKCRVNSAAFPAPIEKTISKTKGRPKAPQVYTIPPPKEQMAKDKVSLTCMITDFFPEDITVEWQWNGQPAENYKNTQPIMDTDGSYFVYSKLNVQKSNWEAGNTFTCSVLHEGLHNHHTEKSLSHSPGK
light: not shown
notes: copies: 2 + 2

- Kd [6]: 282 nM
B8: H237-mIgG1/MRAL-k0 (antibody)
heavy: B7 heavy with E229T, D230V, E234S, D235S
light: not shown
notes: Anti-IL-6 receptor antibody with unaltered mouse IgG1 H chain constant region; copies: 2 + 2

- relative mFcγRII-binding activity (H237-mIgG1/MRAL-k0 = 1) [3]: > 500 fold
B9: H237-MB390/MRAL-k0 (antibody, mouse IgG1, kappa)
heavy: B7 heavy with D230P, P231N
light: not shown
notes: mIgG1 with T230E/V231P/P232N/S238E/S239D; also called template T8; copies: 2 + 2

- binding result [7]: no binding
- binding result [8]: no binding
B10: H237-MB590/MRAL-k0 (antibody, mouse IgG1, kappa)
heavy: B7 heavy with E229T, D230V, E234D, D235S, S263M
light: not shown
notes: copies: 2 + 2

- Kd [9]: 282 nM
B11: H237-mIgG1/MRAL-k0 (antibody)
heavy: B7 heavy with E229T, D230V, E234S, D235S
light: not shown
notes: Anti-IL-6 receptor antibody with the unaltered mouse IgG1 H chain constant region; copies: 2 + 2

- relative mFcγRIII-binding activity (mIgG1 = 1) [10]: 0.01 fold
- binding result [7]: no binding
B12: H237-MB675/MRAL-k0 (antibody)
heavy: B7 heavy with E229I, D230P, P231A, D235K
light: not shown
notes: copies: 2 + 2

- relative mFcγRIII-binding activity (mIgG1 = 1) [10]: 0.03 fold
- binding result [7]: no binding
B13: H237-MB677/MRAL-k0 (antibody)
heavy: B7 heavy with E229Q, D230P, P231N, D235K
light: not shown
notes: copies: 2 + 2

- relative mFcγRII-binding activity (mIgG1 = 1) [11]: 0.23 fold
- binding result [8]: no binding
B14: H237-MB610/MRAL-k0 (antibody, mouse IgG1, kappa)
heavy: B7 heavy with E229T, D230V, V233E, E234S, D235E, F237D
light: not shown
notes: copies: 2 + 2

- Kd [12]: 1.07 nM
- relative mFcγRII-binding activity (mIgG1 = 1) [12]: 196 fold
- Kd [6]: 94 nM
- relative mFcγRIII-binding activity (mIgG1 = 1) [6]: 3 fold
B15: H237-MB477/MRAL-k0 (antibody, mouse IgG1, kappa)
heavy: B7 heavy with D230P, P231N, S263A
light: not shown
notes: mouse IgG1 CH variant; copies: 2 + 2

- relative mFcγRII-binding activity (mIgG1 = 1) [11]: 0.05 fold
- binding result [8]: no binding
B16: H237-MB606/MRAL-k0 (antibody, mouse IgG1, kappa)
heavy: B7 heavy with D230V, E234D, D235S, S263M
light: not shown
notes: copies: 2 + 2

- binding result [13]: no binding
- relative mFcγRII-binding activity (mIgG1 = 1) [14]: 0.3 fold
B17: H237-MB879/MRAL-k0 (antibody, mouse IgG1, kappa)
heavy: B7 heavy with E229T, D230P, P231N, V233E, D235L
light: not shown
notes: copies: 2 + 2

- binding result [13]: no binding
- relative mFcγRII-binding activity (mIgG1 = 1) [14]: 0.34 fold
B18: H237-MB880/MRAL-k0 (antibody, mouse IgG1, kappa)
heavy: B7 heavy with D230V, P231A, V233E, D235L
light: not shown
notes: copies: 2 + 2

- Kd [12]: 0.338 nM
- relative mFcγRII-binding activity (mIgG1 = 1) [12]: 622 fold
- Kd [6]: 25.8 nM
- relative mFcγRIII-binding activity (mIgG1 = 1) [6]: 10.9 fold
B19: H237-MB492/MRAL-k0 (antibody, mouse IgG1, kappa)
heavy: B7 heavy with D230P, P231N, N320D
light: not shown
notes: as for B15
